The test addresses Purified recombinant HIV gp120, biotinylated (HIV) (UniProt P04578). In words: SPR. A general note: In SPR one partner is held on a chip, and binding of the other changes the refractive index at the surface.

“soluble recombinant human DC-SIGN extracellular domain (from UniProt Q9NNX6 59-404) (domain or fragment)”: the percent less binding in 20 mM glucose than in 5 mM glucose came to 33%.

(Values after paper PMC3088832.)
